Results taken from patent publication US20060063709A1.

Target: NF-kB from mouse cells (nuclear extracts of TPA-stimulated 70Z/3 pre-B cells; also nuclear extracts of the mouse B cell line WEHI 231; cytosolic precursor of 70Z/3) (mouse)

DNA binding activity of NF-kB in EMSA (inhibitor assay): > 90%
reactivation of IkB-inactivated NF-kB DNA binding activity by DOC (EMSA): 66%
Substance: IkB (protein inhibitor of NF-kB) prepared from cytosol of unstimulated mouse 70Z/3 pre-B cells
